In US6420345 (dated 2002):

Experiments:
Test in all cases: in vitro kinase assay
CDK4/cyclin D1 complex = CDK4/cyclin D1 complex (UniProt P11802 1-303; P24385 1-295)
CDK2/cyclin E complex = CDK2/cyclin E complex (UniProt P24941 1-298; P24864 16-410)
CDC2/cyclin B complex = CDC2/cyclin B complex (UniProt P06493 1-297; P14635 1-433)
Chain of CDC2/cyclin B complex (P06493 whole entry, chain 1 of 2): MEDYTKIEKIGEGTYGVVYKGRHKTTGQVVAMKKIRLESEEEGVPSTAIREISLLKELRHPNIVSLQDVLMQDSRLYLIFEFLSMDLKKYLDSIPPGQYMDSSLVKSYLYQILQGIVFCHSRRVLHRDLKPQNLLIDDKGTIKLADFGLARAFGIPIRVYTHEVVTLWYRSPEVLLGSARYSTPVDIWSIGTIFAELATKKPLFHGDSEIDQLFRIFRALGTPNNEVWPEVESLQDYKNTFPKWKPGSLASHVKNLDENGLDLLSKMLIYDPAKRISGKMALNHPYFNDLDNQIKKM
Chain of CDC2/cyclin B complex (P14635 whole entry, chain 2 of 2): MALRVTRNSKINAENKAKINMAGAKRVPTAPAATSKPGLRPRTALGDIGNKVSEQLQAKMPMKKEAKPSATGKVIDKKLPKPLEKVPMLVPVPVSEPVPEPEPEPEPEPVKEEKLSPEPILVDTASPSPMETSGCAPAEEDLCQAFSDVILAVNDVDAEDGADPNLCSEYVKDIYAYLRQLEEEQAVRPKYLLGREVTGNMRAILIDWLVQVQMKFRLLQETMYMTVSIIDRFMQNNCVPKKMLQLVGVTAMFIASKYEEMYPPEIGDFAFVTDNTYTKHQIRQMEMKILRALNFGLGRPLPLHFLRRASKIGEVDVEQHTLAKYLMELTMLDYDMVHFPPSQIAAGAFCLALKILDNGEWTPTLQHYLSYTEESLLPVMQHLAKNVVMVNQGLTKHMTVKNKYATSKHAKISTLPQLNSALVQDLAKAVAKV

Chain of CDK4/cyclin D1 complex (P11802 whole entry, chain 1 of 2): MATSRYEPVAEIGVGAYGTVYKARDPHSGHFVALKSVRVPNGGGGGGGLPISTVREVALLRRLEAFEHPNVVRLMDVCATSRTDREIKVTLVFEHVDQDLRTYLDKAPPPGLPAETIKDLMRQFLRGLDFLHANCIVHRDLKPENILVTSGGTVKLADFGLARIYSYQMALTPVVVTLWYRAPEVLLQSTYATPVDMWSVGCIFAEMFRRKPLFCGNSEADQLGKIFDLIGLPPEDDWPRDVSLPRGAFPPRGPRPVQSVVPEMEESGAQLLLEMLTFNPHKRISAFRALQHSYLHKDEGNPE
Chain of CDK4/cyclin D1 complex (P24385 whole entry, chain 2 of 2): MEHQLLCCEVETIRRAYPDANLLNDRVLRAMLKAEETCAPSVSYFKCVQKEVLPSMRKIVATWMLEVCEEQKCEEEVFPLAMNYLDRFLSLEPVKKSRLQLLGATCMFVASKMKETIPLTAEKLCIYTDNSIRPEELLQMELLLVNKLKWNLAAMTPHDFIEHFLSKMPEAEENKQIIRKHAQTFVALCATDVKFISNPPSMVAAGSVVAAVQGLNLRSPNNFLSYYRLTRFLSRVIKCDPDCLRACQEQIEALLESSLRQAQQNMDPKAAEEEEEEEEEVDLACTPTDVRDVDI

IC50 (CDK4/cyclin D1 complex) [nM] | IC50 (CDK2/cyclin E complex) [nM] | IC50 (CDC2/cyclin B complex) [nM] | Binder
100 | > 1000 | > 1000 | human p16 (other) MEPAAGSSMEPSADWLATAAARGRVEEVRALLEAGALPNAPNSYGRRPIQVMMMGSARVAELLLLHGAEPNCADPATLTRPVHDAAREGFLDTLVVLHRAGARLDVRDAWGRLPVDLAEELGHRDVARYLRAAAGGTRGSNHARIDAAEGPSDIPD
38 | 3 | 17 | W10 (other) MGYPYDVPDYAKPSACRNLFGPVDHEELTRDLEKHCRDMEEASQRKWNFDFQNHKPLEGKYEWQEVEKGSLPEFYYRPPRGGGGSGGGGSGGGGSVEDPAAGSSMEPSADWLATAAARGRVEEVRALLEAGALPNAPNSYGRRPIQVMMMGSARVAELLLLHGAEPNCADPATLTRPVHDAAREGFLDTLVVLHRAGARLDVRDAWGRLPVDLAEELGHRDVARYLRAAAGGTRGSNHARIDAAEGPSDIPD
47 | 3.5 | 18 | W9 (other) MGYPYDVPDYAKPSACRNLFGPVDHEELTRDLEKHCRDMEEASQRKWNFDFQNHKPLEGKYEWQEVEKGSLPEFYYRPPRVEDPAAGSSMEPSADWLATAAARGRVEEVRALLEAGALPNAPNSYGRRPIQVMMMGSARVAELLLLHGAEPNCADPATLTRPVHDAAREGFLDTLVVLHRAGARLDVRDAWGRLPVDLAEELGHRDVARYLRAAAGGTRGSNHARIDAAEGPSDIPD
